Measured values taken from patent publication US20130095503A1, “SERUM SPLA2-IIA AS DIAGNOSIS MARKER FOR PROSTATE AND LUNG CANCER” (UNIVERSITY OF CINCINNATI, priority 2010, published 2013).

Assays:
[1] = target: T1, HER3 (Homo sapiens, UniProt P21860); assay: Western blot of P-HER3 in lung cancer cells treated with sPLA2-IIA; assay type: cell-based; details: A549 and H1975 cells (FIG. 22B: H1975), 0-0.5 μg/mL, 2 H, 10% FBS
T1 construct: endogenous in cells; host or cells: H1975 lung cancer cells
T1 sequence (P21860 20-1342): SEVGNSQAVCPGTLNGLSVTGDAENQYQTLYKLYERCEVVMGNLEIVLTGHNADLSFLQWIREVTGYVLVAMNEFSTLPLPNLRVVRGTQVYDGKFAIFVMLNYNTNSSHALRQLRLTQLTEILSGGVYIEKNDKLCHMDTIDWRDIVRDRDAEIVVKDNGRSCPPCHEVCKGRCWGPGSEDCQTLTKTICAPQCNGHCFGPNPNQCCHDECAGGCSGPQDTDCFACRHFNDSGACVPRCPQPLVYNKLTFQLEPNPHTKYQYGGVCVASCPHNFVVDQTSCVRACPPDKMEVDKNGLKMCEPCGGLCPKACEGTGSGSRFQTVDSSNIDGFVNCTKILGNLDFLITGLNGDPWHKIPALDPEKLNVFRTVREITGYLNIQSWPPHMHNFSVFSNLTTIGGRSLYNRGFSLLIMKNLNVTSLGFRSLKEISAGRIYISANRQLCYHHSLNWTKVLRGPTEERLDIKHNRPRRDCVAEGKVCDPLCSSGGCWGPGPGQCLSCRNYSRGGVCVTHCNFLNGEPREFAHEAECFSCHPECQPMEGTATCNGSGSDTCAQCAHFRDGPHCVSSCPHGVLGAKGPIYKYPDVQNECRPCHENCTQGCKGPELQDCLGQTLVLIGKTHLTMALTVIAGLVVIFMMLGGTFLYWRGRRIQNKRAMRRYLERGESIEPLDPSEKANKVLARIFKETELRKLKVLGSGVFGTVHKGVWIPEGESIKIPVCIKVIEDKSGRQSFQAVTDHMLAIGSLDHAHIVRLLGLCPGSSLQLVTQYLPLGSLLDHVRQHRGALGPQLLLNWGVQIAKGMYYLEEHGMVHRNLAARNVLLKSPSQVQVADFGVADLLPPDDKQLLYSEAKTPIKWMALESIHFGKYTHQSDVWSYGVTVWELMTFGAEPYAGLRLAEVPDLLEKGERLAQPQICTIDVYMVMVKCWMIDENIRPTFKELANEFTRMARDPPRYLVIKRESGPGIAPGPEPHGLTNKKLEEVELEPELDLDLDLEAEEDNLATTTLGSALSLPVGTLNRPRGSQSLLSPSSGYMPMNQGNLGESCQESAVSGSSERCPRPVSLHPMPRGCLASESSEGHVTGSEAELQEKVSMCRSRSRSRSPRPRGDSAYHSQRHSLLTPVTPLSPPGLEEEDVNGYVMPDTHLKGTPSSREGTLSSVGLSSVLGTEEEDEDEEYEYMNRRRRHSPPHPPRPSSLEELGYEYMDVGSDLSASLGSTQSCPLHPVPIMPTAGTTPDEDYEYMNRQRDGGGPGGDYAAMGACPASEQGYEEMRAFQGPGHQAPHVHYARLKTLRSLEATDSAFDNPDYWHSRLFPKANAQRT
Description: (§1) A549 and H1975 lung cancer cells were starved in 1% stripped medium for 24 H. The cells were then treated with recombinant human sPLA2-IIA (0.5 μg/mL) with various concentrations (0, 0.125, 0.25, or 0.5 μg/mL) of sPLA2-IIA for 2 H in medium containing 10% fetal bovine serum (hereinafter “FBS”). Cell extracts were prepared and subjected to western blot analysis for HER2, P-HER2, HER3, and P-HER3. Western blot analysis was conducted as previously described.

[2] = target: T2, HER2 (Homo sapiens, UniProt P04626); assay: Western blot of P-HER2 in lung cancer cells treated with sPLA2-IIA; assay type: cell-based; parameters: endogenous in cells; host or cells: A549 lung cancer cells; details: A549 and H1975 cells (FIG. 22A: A549), 0-0.5 μg/mL, 2 H, 10% FBS
Description: as §1

[3] = test system: LNCaP-AI cells; assay: MTT growth assay in LNCaP-AI cells; assay type: cell-based, human; details: 10% stripped medium, about 4 days, FIG. 11
Description: The role of sPLA2-IIA in the growth of prostate cancer cells was studied by MTT assay. Specifically, LNCaP-AI cells were cultured in 10% stripped medium in the presence of EGF (ng/mL) or sPLA2-IIA (ng/mL) for about 4 days, followed by performance of an MTT assay. The role of sPLA2-IIA on prostate cancer cell growth was also studied by blocking the activity of sPLA2-IIA in LNCaP-AI cells. The activity of sPLA2-IIA was blocked in LNCaP-AI cells by administering the peptide inhibitor cFLYSYR (μM) or c(NapA)R (μM) for about 4 days, followed by performance of an MTT assay.

[4] = target: T2, HER2; assay: Western blot of P-HER2 in LNCaP-AI prostate cancer cells treated with sPLA2-IIA; assay type: cell-based; parameters: endogenous in cells; details: 0.5 μg/mL for 0-180 min or 0-0.5 μg/mL for 2 H, FIG. 23
Description: Additionally, LNCaP-AI prostate cancer cells were starved in 1% stripped medium for 24 H. The cells were then treated with recombinant human sPLA2-IIA (0.5 μg/mL) for 30 to 180 minutes (0, 30, 60, 120, or 180 min) or with various concentrations of sPLA2-IIA (0, 0.125, 0.25, or 0.5 μg/mL) for 2 H in medium containing 10% FBS. Cell extracts were prepared and subjected to western blot analysis for P-HER2 and HER2. Western blot analysis was conducted as previously described.

B1: recombinant human sPLA2-IIA: recombinant human secretory phospholipase A2-IIA (protein, UniProt P14555 21-144, looked up)
Phospholipase A2, membrane …: NLVNFHRMIKLTTGKEAALSYGFYGCHCGVGGRGSPKDATDRCCVTHDCCYKRLEKRGCGTKFLSYKFSNSGSRITCAKQDSCRSQLCECDKAAATCFARNKTTYNKKYQYYSNKHCRGSTPRC
B1 was tested, and the “phosphorylation of HER3” value [1] was “induced phosphorylation”, the “phosphorylation of HER2” value [2] was “induced phosphorylation” and the “prostate cancer cell growth (MTT)” value [3] was “stimulates prostate cancer cell growth”. For the same molecule, the “phosphorylation of HER2” value [4] was “induced phosphorylation”.
